Measured values: US20240377408A1

Columns and labels:
Experiment in all cases: cell-based or functional assay
[1] = target: M64-AAEIR
[2] = target: M64-DAEIR
[3] = target: M64-EAEIR
[4] = target: M64-FAEIR
[5] = target: M64-LAEIR
[6] = target: human carbonic anhydrase 2 (wild-type hCAII) (Homo sapiens) (UniProt P00918)

## Carbonic anhydrase I, Homo sapiens (scaffold) (from UniProt P00915 5-261) (enzyme)
[1]
  IC50 values (µM), colorimetric pNPA hydrolysis inhibition assay: 0.109 µM
[2]
  IC50 values (µM), colorimetric pNPA hydrolysis inhibition assay: 0.136 µM
[3]
  IC50 values (µM), colorimetric pNPA hydrolysis inhibition assay: 1.09 µM
[4]
  IC50 values (µM), colorimetric pNPA hydrolysis inhibition assay: 0.012 µM
[5]
  IC50 values (µM), colorimetric pNPA hydrolysis inhibition assay: 0.016 µM

## FAAAE (peptide)
[6]
  IC50 (µM), hCAII functional assay (p-nitrophenyl acetate hydrolysis): 152 µM
